Results as given in publication doi:10.1101/2025.03.26.645513 (bioRxiv, 2025).

B1: Escherichia coli O-acetylserine sulfhydrylase CysK (enzyme, UniProt P0ABK5 1-323, looked up)
chain: MSKIFEDNSLTIGHTPLVRLNRIGNGRILAKVESRNPSFSVKCRIGANMIWDAEKRGVLKPGVELVEPTSGNTGIALAYVAAARGYKLTLTMPETMSIERRKLLKALGANLVLTEGAKGMKGAIQKAEEIVASNPEKYLLLQQFSNPANPEIHEKTTGPEIWEDTDGQVDVFIAGVGTGGTLTGVSRYIKGTKGKTDLISVAVEPTDSPVIAQALAGEEIKPGPHKIQGIGAGFIPANLDLKLVDKVIGITNEEAISTARRLMEEEGILAGISSGAAVAAALKLQEDESFTNKNIVVILPSSGERYLSTALFADLFTEKELQQ
B2: Escherichia coli serine acetyltransferase CysE (enzyme)
chain: MSCEELEIVWNNIKAEARTLADCEPMLASFYHATLLKHENLGSALSYMLANKLSSPIMPAIAIREVVEEAYAADPEMIASAACDIQAVRTRDPAVDKYSTPLLYLKGFHALQAYRIGHWLWNQGRRALAIFLQNQVSVTFQVDIHPAAKIGRGIMLDHATGIVVGETAVIENDVSILQSVTLGGTGKSGGDRHPKIREGVMIGAGAKILGNIEVGRGAKIGAGSVVLQPVPPHTTAAGVPARIVGKPDSDKPSMDMDQHFNGINHTFEYGDGI
B3: Neisseria gonorrhoeae serine acetyltransferase CysE (enzyme)
chain: MKKNHLNTTGFDLWHTIREETAAAAAAEPMLASFLHQTVLRHESLGSVLAYHLSSKLGSPIMDVRALFEIYQQALGSDTQISKCVEADLKAIYERDPACDEYSLPLLYFKGFHAIQAHRINHRLYLDGRKTLAYFLQNRMSEVFGVDIHPAARLGYGLMLDHATGFVAGETAVLGNNISILHGVTLGGSGKEGGDRHPKIGDGVMIGANASILGNIRIGSNAKIGAGSVVVSDVPPSITVVGVPAKPVARSLKTPSADMDQNIQFAEIDFMI
B4: Staphylococcus aureus O-acetylserine sulfhydrylase CysK (enzyme, UniProt P63870 1-310, looked up)
chain: MAQKPVDNITQIIGGTPVVKLRNVVDDNAADVYVKLEYQNPGGSVKDRIALAMIEKAEREGKIKPGDTIVEPTSGNTGIGLAFVCAAKGYKAVFTMPETMSQERRNLLKAYGAELVLTPGSEAMKGAIKKAKELKEEHGYFEPQQFENPANPEVHELTTGPELLQQFEGKTIDAFLAGVGTGGTLSGVGKVLKKEYPNIEIVAIEPEASPVLSGGEPGPHKLQGLGAGFIPGTLNTEIYDSIIKVGNDTAMEMSRRVAKEEGILAGISSGAAIYAAIQKAKELGKGKTVVTVLPSNGERYLSTPLYSFDD

How the values were obtained:
[1] = molecular target: Neisseria gonorrhoeae O-acetylserine sulfhydrylase CysK (Neisseria gonorrhoeae); test: SEC
[2] = molecular target: Neisseria gonorrhoeae O-acetylserine sulfhydrylase CysK (Neisseria gonorrhoeae); test: SEC-SAXS
SEC-SAXS = molecular target: the molecule itself; test: SEC-SAXS
SEC = molecular target: the molecule itself; test: SEC
[3] = molecular target: B1; test: SEC

Molecule | stoichiometry N (SEC-SAXS) | stoichiometry N (SEC) | also measured
Neisseria gonorrhoeae O-acetylserine sulfhydrylase CysK (enzyme) | – | – | stoichiometry N [1]: 2; stoichiometry N [2]: 2
B1 | 2 | – | –
B2 | – | 6 | binding result [3]: binds
B3 | – | 6 | –
B4 | 2 | – | –
